Data as given in US8936806B2, “Periostin induces proliferation of cardiomyocytes and promotes cardiac regeneration” (Children's Medical Center Corporation, priority 2007, dated 2015).

Test system: primary neonatal rat ventricular cardiomyocytes
Experiment: Cell cycle markers (Ki-67, phosphorylated Rb, cyclin A) in neonatal cardiomyocytes
Type: cell-based
Description: Primary neonatal rat ventricular cardiomyocytes were isolated using the Neomyts kit (Cellutron, Highland Park, N.J.), seeded at a density of 10^5 cells/cm^2 onto gelatin-coated cover slips, stimulated for 3 days, and labeled with BrdU for the terminal 2 days. Primary adult ventricular cardiomyocytes were isolated from male (300 gm) Wistar rats (Charles River Laboratories) and maintained as described (Engel, F. B. et al. p38 MAP kinase inhibition enables proliferation of adult mammalian cardiomyocytes. Genes Dev 19, 1175-87 (2005)). Adult cardiomyocytes were stimulated daily for 9 days and labeled with 30 μM BrdU for the terminal 3 days. Cardiomyocytes were stimulated with periostin (500 ng/mL) and FGF (100 ng/mL). Inhibiting antibodies were added at a concentration of 10 μg/mL, cRGD at 10 μM, U0126 at 10 μM, PD98059 at 1 μM, LY294002 at 10 μM, and Wortmannin at 0.1 μM 30 min prior to stimulation. The vehicle used to dissolve factors or chemicals was added to unstimulated samples, which were then processed together with the test samples.
DNA-synthesis was analyzed by visualization of BrdU uptake and cytokinesis was determined by detection of the cleavage furrow and the midbody with an antibody against aurora B kinase as described (Engel, F. B. et al. p38 MAP kinase inhibition enables proliferation of adult mammalian cardiomyocytes. Genes Dev 19, 1175-87 (2005)). Signals were visualized with secondary antibodies conjugated to Alexa 488, Alexa 546, Alexa 594, and Alexa 647 (Invitrogen). Nuclei were visualized with 4′,6′-diamidino-2-phenylindole (DAPI, Invitrogen). For image acquisition, the value for γ was set at 1 and the lookup table settings were linear.

B1: periostin: Recombinant periostin, purified from HEK293 cells expressing the full-length human cDNA; secreted protein of 834 amino acids (Seq ID. No. 1) (protein, listed as Homo sapiens)
chain: MIPFLPMFSLLLLLIVNPINANNHYDKILAHSRIRGRDQGPNVCALQQILGTKKKYFSTCKNWYKKSICGQKTTVLYECCPGYMRMEGMKGCPAVLPIDHVYGTLGIVGATTTQRYSDASKLREEIEGKGSFTYFAPSNEAWDNLDSDIRRGLESNVNVELLNALHSHMINKRMLTKDLKNGMIIPSMYNNLGLFINHYPNGVVTVNCARIIHGNQIATNGVVHVIDRVLTQIGTSIQDFIEAEDDLSSFRAAAITSDILEALGRDGHFTLFAPTNEAFEKLPRGVLERFMGDKVASEALMKYHILNTLQCSESIMGGAVFETLEGNTIEIGCDGDSITVNGIKMVNKKDIVTNNGVIHLIDQVLIPDSAKQVIELAGKQQTTFTDLVAQLGLASALRPDGEYTLLAPVNNAFSDDTLSMVQRLLKLILQNHILKVKVGLNELYNGQILETIGGKQLRVFVYRTAVCIENSCMEKGSKQGRNGAIHIFREIIKPAEKSLHEKLKQDKRFSTFLSLLEAADLKELLTQPGDWTLFVPTNDAFKGMTSEEKEILIRDKNALQNIILYHLTPGVFIGKGFEPGVTNILKTTQGSKIFLKEVNDTLLVNELKSKESDIMTTNGVIHVVDKLLYPADTPVGNDQLLEILNKLIKYIQIKFVRGSTFKEIPVTVYTTKIITKVVEPKIKVIEGSLQPIIKTEGPTLTKVKIEGEPEFRLIKEGETITEVIHGEPIIKKYTKIIDGVPVEITEKETREERIITGPEIKYTRISTGGGETEETLKKLLQEEVTKVTKFIEGGDGHLFEDEEIKRLLQGDTPVRKLQANKKVQGSRRRLREGRSQ
In the case of B1, the “increase of cardiomyocytes expressing cyclin A” value is reported as 11 fold, the “increase of cardiomyocytes with phosphorylated Rb” value is reported as 12 fold and the “increase of proliferating cardiomyocytes (Ki-67)” value is reported as 4 fold.
